Results as given in patent US20230051538A1.

Assays:
[1] = biological target: alpha-synuclein monomer (UniProt P37840); experiment: SPR, antibody immobilized, steady state fitting
[2] = biological target: alpha-synuclein physiological tetramer (UniProt P37840); experiment: SPR, antibody immobilized, steady state fitting
[3] = biological target: alpha-synuclein oligomers (UniProt P37840); experiment: SPR, antibody immobilized, kinetic fitting, 1:1 model
[4] = biological target: alpha-synuclein sonicated preformed fibrils (soluble fibrils) (human) (UniProt P37840); experiment: as above
[5] = biological target: alpha-synuclein in Lewy Body Disease (LBD/DLB) brain (human) (UniProt P37840); experiment: dot blot signal on LBD brain extract over control brain extract

Fold of reactivity LBD vs. Control (LBD / Control) [5]	Substance	Kd [1]	Kd [2]	Kd [3]	koff [3]	kon [3]	Kd [4]	koff [4]	kon [4]
	NI-202.12F4 (Creative Biolabs) (antibody)	8600 nM	14000 nM	131 nM	0.001 s⁻¹	7640 M⁻¹ s⁻¹	12 nM	3.75e-05 s⁻¹	3100 M⁻¹ s⁻¹
3.8 fold	Syn-F1 aggregation/fibril preferring antibody								
2.2 fold	pan-Alpha Syn Antibody (4D6) (Biolegend)								
	Prasinezumab, Human IgG, PRX002/RG7935, Creative Biolabs (antibody)	100 nM	50 nM	72 nM	0.00181 s⁻¹	25100 M⁻¹ s⁻¹	11 nM	0.000209 s⁻¹	19500 M⁻¹ s⁻¹
